Columns and labels:
[1] = biological target: SARS-CoV-2 S on pseudovirions (Wuhan Hu-1 / IL1/2020, last 18 amino acids removed) (SARS-CoV-2, UniProt P0DTC2 14-1273); test: cell-based or functional assay
[2] = biological target: SARS-CoV-1 spike antigens (bead panel) (SARS-CoV-1, UniProt P59594 14-1195); test: multiplex bead assay
[3] = biological target: T1, HCoV-229E spike antigens (bead panel) (HCoV-229E, UniProt P15423 16-1115); test: multiplex bead assay
T1 sequence: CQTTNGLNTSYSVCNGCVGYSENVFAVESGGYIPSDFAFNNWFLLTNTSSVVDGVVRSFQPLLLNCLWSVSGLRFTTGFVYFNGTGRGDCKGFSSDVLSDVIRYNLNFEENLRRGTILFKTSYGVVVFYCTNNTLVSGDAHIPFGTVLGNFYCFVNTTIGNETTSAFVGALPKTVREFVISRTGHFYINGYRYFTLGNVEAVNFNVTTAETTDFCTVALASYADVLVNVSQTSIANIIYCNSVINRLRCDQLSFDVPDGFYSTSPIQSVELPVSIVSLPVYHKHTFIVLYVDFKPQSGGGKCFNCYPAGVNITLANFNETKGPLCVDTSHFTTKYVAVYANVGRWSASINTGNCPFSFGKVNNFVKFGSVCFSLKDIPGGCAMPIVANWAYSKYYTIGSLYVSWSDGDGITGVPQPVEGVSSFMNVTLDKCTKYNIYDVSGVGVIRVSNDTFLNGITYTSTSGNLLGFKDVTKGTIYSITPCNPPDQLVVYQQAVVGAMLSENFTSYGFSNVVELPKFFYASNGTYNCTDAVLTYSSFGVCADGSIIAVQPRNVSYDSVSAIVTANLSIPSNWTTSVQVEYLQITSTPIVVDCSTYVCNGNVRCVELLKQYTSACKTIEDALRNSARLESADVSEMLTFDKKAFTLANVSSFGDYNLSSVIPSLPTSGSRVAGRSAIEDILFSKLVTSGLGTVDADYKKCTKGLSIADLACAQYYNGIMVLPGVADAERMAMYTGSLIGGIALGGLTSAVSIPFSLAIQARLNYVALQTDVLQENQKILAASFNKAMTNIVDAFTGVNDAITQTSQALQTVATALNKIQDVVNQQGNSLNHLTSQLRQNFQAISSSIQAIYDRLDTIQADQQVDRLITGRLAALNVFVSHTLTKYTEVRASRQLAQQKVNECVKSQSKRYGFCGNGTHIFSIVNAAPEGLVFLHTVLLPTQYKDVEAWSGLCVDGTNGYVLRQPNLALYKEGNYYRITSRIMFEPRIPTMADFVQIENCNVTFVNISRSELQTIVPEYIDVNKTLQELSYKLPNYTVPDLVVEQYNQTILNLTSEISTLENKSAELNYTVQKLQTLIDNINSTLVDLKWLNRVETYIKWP

[4] = biological target: T2, HCoV-HKU1 spike antigens (bead panel) (HCoV-HKU1, UniProt Q5MQD0 13-1300); test: multiplex bead assay
T2 sequence: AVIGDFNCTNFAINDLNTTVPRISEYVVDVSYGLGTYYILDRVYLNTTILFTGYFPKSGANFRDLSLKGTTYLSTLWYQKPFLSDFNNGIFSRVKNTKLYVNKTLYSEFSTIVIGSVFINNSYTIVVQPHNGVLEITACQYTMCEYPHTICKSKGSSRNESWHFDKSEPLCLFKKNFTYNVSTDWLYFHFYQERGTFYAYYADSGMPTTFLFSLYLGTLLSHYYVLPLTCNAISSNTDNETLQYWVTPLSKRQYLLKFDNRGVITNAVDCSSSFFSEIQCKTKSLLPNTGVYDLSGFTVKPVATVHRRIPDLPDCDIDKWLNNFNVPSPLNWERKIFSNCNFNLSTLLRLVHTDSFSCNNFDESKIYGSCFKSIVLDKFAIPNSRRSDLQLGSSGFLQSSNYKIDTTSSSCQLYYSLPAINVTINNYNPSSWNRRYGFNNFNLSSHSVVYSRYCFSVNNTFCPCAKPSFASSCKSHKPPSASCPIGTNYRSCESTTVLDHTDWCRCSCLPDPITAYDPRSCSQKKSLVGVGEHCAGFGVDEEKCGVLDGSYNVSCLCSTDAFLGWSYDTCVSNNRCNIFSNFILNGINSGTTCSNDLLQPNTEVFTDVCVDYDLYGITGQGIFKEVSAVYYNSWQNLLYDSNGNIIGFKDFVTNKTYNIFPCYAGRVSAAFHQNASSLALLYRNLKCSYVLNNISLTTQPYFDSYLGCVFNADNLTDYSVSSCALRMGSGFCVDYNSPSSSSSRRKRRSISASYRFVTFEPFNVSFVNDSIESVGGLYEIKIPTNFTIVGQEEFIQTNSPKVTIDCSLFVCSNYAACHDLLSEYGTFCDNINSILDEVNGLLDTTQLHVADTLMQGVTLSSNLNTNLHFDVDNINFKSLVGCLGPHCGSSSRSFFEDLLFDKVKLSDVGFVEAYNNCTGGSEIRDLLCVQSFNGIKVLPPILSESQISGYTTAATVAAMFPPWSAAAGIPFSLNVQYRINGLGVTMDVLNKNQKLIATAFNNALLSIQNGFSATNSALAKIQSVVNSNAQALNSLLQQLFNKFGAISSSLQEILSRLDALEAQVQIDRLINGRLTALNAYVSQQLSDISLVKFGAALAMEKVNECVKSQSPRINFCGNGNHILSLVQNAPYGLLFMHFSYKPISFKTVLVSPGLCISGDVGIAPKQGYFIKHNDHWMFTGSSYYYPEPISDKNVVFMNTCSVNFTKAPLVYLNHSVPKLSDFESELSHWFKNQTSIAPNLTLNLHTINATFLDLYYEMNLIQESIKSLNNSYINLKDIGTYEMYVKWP

Row | Binder | Mean IC50, pSV neutralization [1] [µg/ml] | Mean IC80, pSV neutralization [1] [µg/ml] | binding result [2] | binding result [3] | binding result [4]
1 | COV_2196 (antibody, V domains shown, human IgG1) VH: QVQLVQSGAEVKKPGASVKVSCKVSGYTLIELSMHWVRQAPGKGLEWMGGFDPEDAKTIYAQKFQGRVTMTEDTSTDTAYMELSSLTFEDTAVYYCATTPAFMAAAGDFDYWGQGTLVTVSS VL: QPVLTQPSSVSVSPGQTATITCSGDVLAKKYARWFQQKPGQAPMLVIYKDTERPSGIPERFSGSSSGTTVTLTINGAQVEDEADYYCYSAAAWVFGGGTKLTVL | 0.02 | 23.4 | no binding | no binding | no binding
2 | COV_2027 (antibody, V domains shown, human IgG1) VH: EVQLVESGGGLIQPGGSLRLSCAASGFSVSTNYMSWVRQAPGKGLEWVSIIYSGGGTYYADSVKGRFTISRDTSENTLYLQMNSLRAEDTAVYYCASFLVGATGQPWYWGQGTLVTVSS VL: not shown | 0.16 | 0.45 | no binding | no binding | no binding
3 | COV_2103 (antibody, V domains shown, human IgG1) VH: EVQLVESGGGVVQPGRSLRLSCGASGFTFSSYGIHWVRQAPGKGLDWVAVIWHDGSQKYYGDSVKGRFTISRDNSKNTLYLQMNRLRAEDTAVYYCARDSGDDYDSSGYPIGNAFDLWGQGTMVTVSS VL: DIQMTQSPSTLSASVGDRVTITCRASQFINSWLAWYQQKPGKAPKLLIYKASSLETGVPSRFSGSGSGTEFTLTISSLQPDDFATYYCQQYNTYSFTFGPGTKVDIK | ≥ 25 | ≥ 25 | no binding | no binding | no binding
4 | COV_2054 (antibody, V domains shown, human IgG1) VH: EVQLVESGGGVLQPGRSLRLSCAASGFTFNNYALHWVRQAPGKGLEWVAVISYDGSSKYYADSVRGRLTISRDNSRNTLYLQMNSLRPEDTAIYYCARDGDGLWLGESFYFDDWGQGTLVTVSS VL: DIQMTQSPSTLSASVGDRVIITCRASQSISSWLAWYQQKPGKAPKLLIYEASTLQSGVPSRFSGSGSGTEFTLTISSLQPDDSATYYCQQYNSYPVHFSQGTKLEIK | ≥ 25 | ≥ 25 | no binding | no binding | no binding
5 | COV_2037 (antibody, V domains shown, human IgG1) VH: QVQLVQSGAEVKKPGASVKVSCKVSGYTLTELSMHWVRQAPGKGLEWMGGFDPEDAETIYAQKFQGRVTMTEDTSTDTAYMELSSLRSEDTAVYYCATAGAITGTPTNYSYYYGMDFWGQGTTVTVSS VL: not shown | 0.07 | ≥ 25 | no binding | no binding | no binding
6 | COV_3088 (antibody, V domains shown, human IgG1) VH: EVQLVESGGGLVQPGGSLRLSCAASGFTFSSYDMHWVRQATGKGLEWVSAIGTAGDTYYPGSVKGRFTISRENAKNSLYLQMNSLRAGDTAVYYCARGSGWPPFFDYWGQGTLVTVSS VL: SYELTQPPSVSVAPGKTARITCGGNNIGSKSVHWYQQKPGQAPVLVIYYDSDRPSGIPERFSGSNSGNTATLTISRVEAGDEADYYCQVWDSSSDHHWVFGGGTKLTVL | ≥ 25 | ≥ 25 | no binding | no binding | no binding
7 | COV_1050 (antibody, V domains shown, human IgG1) VH: QVQLVESGGGVVQPGRSLRLSCAASRFTFSSYAMHWVRQAPGKGLEWVAVISFDGSNKYYADSVKGRFTIFRDNSKNTLSLQMNSLRTEDTAMYYCASPAGYYESLWGQGTLVTVSS VL: SYELTQPPSVSVSPGQTARVTCSGDALSKQYGFWYQQKPGQAPTLVIYKDTERPSGIPERFSGSGSGTTVTLTISGVQAEDEADYYCQSTDNSGRWVFGGGTKLTVLG | ≥ 25 | ≥ 25 | no binding | no binding | no binding
8 | COV_2057 (antibody, V domains shown, human IgG1) VH: EVQLVQSGAEVKKPGESLKISCKGSGYSFISYWIAWVRQMPGKGLEWMGIIYPGDSDTTYSPSFQGQVTISADKSISTAYLQWSSLKASDTAIYYCARLLYYSDSSPLDSWGQGTLVTVSS VL: DIQMTQSPSSLSASVGDRVTITCRASQSISTYLNWYQQKPGKAPNLLIYAASSLQSGVPSRFSGSGSGTDFTLTISSLQPEDFATYYCQQSHSTPRTFGPGTKVDIK | 0.97 | 8.99 | no binding | no binding | no binding
9 | COV_2028 (antibody, V domains shown, human IgG1) VH: QVQLQESGPGLVKPSGTLSLTCVVSGGSISSSNWWSWVRQPPGKGLEWIGEIYHSGSTNYNPSLKSRVTISVDKSKNQFSLRLTSVTAADTAVYYCARGWNYDYWGQGTLVTVSS VL: QSALTQPASVSGSPGQSITIACTGTSSDVGSYNLVSWYQQHPGKAPKLMIYEVSKRPSGLSNRFSGSKSGNTASLTISGLQAEDEADYYCYSYAGSSTWVFGGGTKLTVL | ≥ 25 | ≥ 25 | no binding | no binding | no binding
